Data taken from patent US20150274841A1 (DYAX, published 2015).
Substitutions are numbered along the chain they refer to.

B1: X133-G05 (Fab, V domains shown)
VH: EVQLLESGGGLVQPGGSLRLSCAASGFTFSHYIMMWVRQAPGKGLEWVSGIYSSGGITVYADSVKGRFTISRDNSKNTLYLQMNSLRAEDTAVYYCAYRRTGSPRRDAFDIWGQGTMVTVSS
VL: DIQMTQSPSTLSASVGDRVTITCRASQSISSWLAWYQQKPGKAPNLLIYKASTLESGVPSRFSGSGSGTEFTLTISSLQPDDFATYYCQQYNTYWTFGQGTKVEIK
B2: M0199-A08 (Fab, V domains shown)
VH: B1 VH with T101I, S103V, A108E
VL: B1 VL
notes: also called M199-A08
B3: X133-D06 (Fab, V domains shown)
VH: B1 VH with T101I, S103I, A108E
VL: B1 VL
notes: HC CDR3 variant of M0162-A04, tested as Fab
B4: M0201-A07 (Fab, V domains shown)
VH: B1 VH with S103V, A108E
VL: B1 VL
B5: X133-F10 (Fab, V domains shown)
VH: B1 VH with S103L
VL: B1 VL
B6: M0201-H06 (Fab, V domains shown)
VH: B1 VH with S103V
VL: B1 VL
B7: M0200-D03 (Fab, V domains shown)
VH: B1 VH with T101I, S103V, A108S, I111M
VL: B1 VL
B8: M0199-All (Fab, V domains shown)
VH: B1 VH with T101R, S103I
VL: B1 VL
B9: M0202-E03 (Fab, V domains shown)
VH: B1 VH with S103I, D110E
VL: B1 VL
B10: M0202-C02 (Fab, V domains shown)
VH: B1 VH with T101P, S103V
VL: B1 VL
B11: M0202-H03 (Fab, V domains shown)
VH: B1 VH with S103V, R106W, A108D
VL: B1 VL
B12: M0202-A08 (Fab, V domains shown)
VH: B1 VH with S103I, R106W
VL: B1 VL
B13: M0202-D09 (Fab, V domains shown)
VH: B1 VH with T101I, S103V, A108S
VL: B1 VL
B14: M0201-F11 (Fab, V domains shown)
VH: B1 VH with T101S, S103I
VL: B1 VL
B15: M0202-E06 (Fab, V domains shown)
VH: B1 VH with T101R, S103V, A108D
VL: B1 VL
B16: M0202-009 (Fab, V domains shown)
VH: B1 VH with T101I, S103V, A108D
VL: B1 VL
B17: M0199-B01 (Fab, V domains shown)
VH: B1 VH with S103I, I111N
VL: B1 VL
B18: M0200-B01 (Fab, V domains shown)
VH: B1 VH with S103I, I111S
VL: B1 VL
B19: X135-A01 (Fab, V domains shown)
VH: B1 VH with S103A
VL: B1 VL
B20: M0202-B04 (Fab, V domains shown)
VH: B1 VH with T101S, S103V
VL: B1 VL
B21: M0200-H07 (Fab, V domains shown)
VH: B1 VH with S103V, D107N, I111N
VL: B1 VL
notes: as for B3
B22: X133-B02 (Fab, V domains shown)
VH: B1 VH with T101I, S103I
VL: B1 VL
notes: as for B3
B23: M0202-H05 (Fab, V domains shown)
VH: B1 VH with S103V, A108V
VL: B1 VL
notes: as for B3
B24: M0200-E11 (Fab, V domains shown)
VH: B1 VH with S103V, I111N
VL: B1 VL
notes: as for B3
B25: M0201-A06 (Fab, V domains shown)
VH: B1 VH with S103I, A108V
VL: B1 VL
notes: as for B3
B26: M0202-G03 (Fab, V domains shown)
VH: B1 VH with S103V, A108S, D110E
VL: B1 VL
notes: as for B3
B27: M0202-Al2 (Fab, V domains shown)
VH: B1 VH with R99Q, S103V, A108S, D110N
VL: B1 VL
notes: HC CDR3 variant of M0162-A04, tested as Fab; also called M0202-A12 (probable reading)
B28: M0202-F06 (Fab, V domains shown)
VH: B1 VH with S103V, R106W
VL: B1 VL
notes: as for B3
B29: M0200-A10 (Fab, V domains shown)
VH: B1 VH with S103V, A108S
VL: B1 VL
notes: as for B3
B30: X135-A03 (Fab, V domains shown)
VH: B1 VH with S103I, A108E
VL: B1 VL
notes: as for B3
B31: M0202-A01 (Fab, V domains shown)
VH: B1 VH with T101I, S103V
VL: B1 VL
notes: as for B3
B32: M0201-H08 (Fab, V domains shown)
VH: B1 VH with S103V, F109L, I111N
VL: B1 VL
notes: as for B3

biological target: T1, human plasma kallikrein (PKal) (human, UniProt P03952 20-638); assay: enzyme inhibition assay: rate (F/s) of substrate peptide cleavage by PKal against [Fab] (nM), fitted to the Morrison equation; apparent Ki (Ki,app); Table 3 prints it rounded, 1405.6 nM
T1 construct: Active PKal is cleaved at the marked R/I site into two disulfide-linked chains; also called human Pkal; active PKal
T1 sequence (P03952 20-638 limits assumed): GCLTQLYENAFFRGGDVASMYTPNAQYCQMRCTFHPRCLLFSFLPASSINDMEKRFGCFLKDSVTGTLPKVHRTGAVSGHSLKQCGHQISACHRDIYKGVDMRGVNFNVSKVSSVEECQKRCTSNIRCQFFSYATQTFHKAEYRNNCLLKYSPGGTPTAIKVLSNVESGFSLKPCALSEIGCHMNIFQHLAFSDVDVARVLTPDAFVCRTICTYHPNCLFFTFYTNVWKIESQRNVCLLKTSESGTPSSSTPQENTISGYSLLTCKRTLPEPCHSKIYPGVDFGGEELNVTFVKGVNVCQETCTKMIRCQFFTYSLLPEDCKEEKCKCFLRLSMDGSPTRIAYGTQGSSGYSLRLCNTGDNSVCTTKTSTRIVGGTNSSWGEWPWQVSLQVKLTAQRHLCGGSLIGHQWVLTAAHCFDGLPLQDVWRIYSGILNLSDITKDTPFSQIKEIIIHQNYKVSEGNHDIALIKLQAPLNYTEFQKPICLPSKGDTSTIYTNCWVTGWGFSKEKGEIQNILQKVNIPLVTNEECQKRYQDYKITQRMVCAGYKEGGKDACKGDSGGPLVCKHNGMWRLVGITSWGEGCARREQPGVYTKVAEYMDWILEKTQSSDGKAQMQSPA

Work on B1 yielded a Ki of 1410 nM.

biological target: T1, human plasma kallikrein (PKal); assay: enzyme inhibition assay: rate (F/s) of substrate peptide cleavage by PKal against [2930] (pM), fitted to the Morrison equation; apparent Ki (Ki,app); no unit stands beside the value, pM is the unit of the concentration axis; Table 3 prints 0.06 nM
Experimental: (§1) Briefly, PKal and a Fab at various concentrations are incubated together for 1 hour at 30° C. A substrate peptide (cleavable by PKal) is then added to this PKal-Fab mixture. The rate of substrate peptide cleavage/proteolysis is then measured, and plotted against the concentrations of the Fab. This plot is then fit to the Morrison equation, which calculates the K_{i,app} value. The results thus obtained are shown in FIGS. 5A-5D and Table 3 below: […]

Binder B2 has a Ki of 0.099 nM.

biological target: T1, human plasma kallikrein (PKal); assay: enzyme inhibition assay: rate (F/s) of substrate peptide cleavage by PKal against [Fab] (nM), fitted to the Morrison equation; apparent Ki (Ki,app); Table 3 prints 0.33 nM
Experimental: as §1

B3 showed a Ki of 0.301 nM.

biological target: T1, human plasma kallikrein (PKal); assay: Ki,app; Fab inhibition of PKal cleavage of a substrate peptide, Morrison fit
Experimental: as §1

Compared with B1, B4 is 14000-fold lower in Ki: 1410 nM for the first, 0.1 nM for the second.

Compared with B5, B6 is 24-fold lower in Ki: 14.7 nM for the first, 0.6 nM for the second. The second binds more tightly here.

Compared with B7, B8 is 20-fold higher in Ki: 0.1 nM for the first, 2 nM for the second. The first binds more tightly here.

Going from B9 to B10, the Ki falls from 2 nM to 0.6 nM (3.3-fold). The second binds more tightly here.

Going from B11 to B12, the Ki rises from 0.1 nM to 2.8 nM (28-fold).

First: B13
Second: B14
The Ki of the first is 15-fold lower: 0.2 nM for the first, 3 nM for the second.

B15 and B16 are the same in Ki: 0.06 nM for the first, 0.06 nM for the second.

First: B17
Second: B18
The Ki of the first is 2.2-fold lower: 1.6 nM for the first, 3.6 nM for the second.

Going from B19 to B20, the Ki falls from 248 nM to 0.2 nM (1200-fold).

Compared with B21, B22 is 5.5-fold higher in Ki: 0.4 nM for the first, 2.2 nM for the second. The first binds more tightly here.

First: B23
Second: B24
The Ki of the first is 1.5-fold lower: 0.26 nM for the first, 0.4 nM for the second.

Compared with B25, B26 is 9.5-fold lower in Ki: 3.8 nM for the first, 0.4 nM for the second.

Compared with B27, B3 is 3.3-fold higher in Ki: 0.1 nM for the first, 0.33 nM for the second.

B28 and B29 are within 1.5-fold of each other in Ki: 0.33 nM for the first, 0.25 nM for the second.

First: B30
Second: B31
The Ki of the first is 3.7-fold higher: 1.1 nM for the first, 0.3 nM for the second.

Compared with B2, B32 is 13-fold higher in Ki: 0.06 nM for the first, 0.8 nM for the second.

biological target: T1, human plasma kallikrein (PKal); assay: enzyme inhibition assay: rate (F/s) of substrate peptide cleavage by PKal against [Fab] (nM), fitted to the Morrison equation; apparent Ki (Ki,app); Table 3 prints it rounded, 14.7 nM

B5 gave a Ki of 14.7 nM.

biological target: T1, human plasma kallikrein (PKal); assay: enzyme inhibition assay: rate (F/s) of substrate peptide cleavage by PKal against [Fab] (nM), fitted to the Morrison equation; apparent Ki (Ki,app); Table 3 prints it rounded, 2.2 nM
Experimental: as §1

B22 showed a Ki of 2.22 nM.

biological target: T1, human plasma kallikrein (PKal); assay: enzyme inhibition assay: rate (F/s) of substrate peptide cleavage by PKal against [Fab] (nM), fitted to the Morrison equation; apparent Ki (Ki,app); Table 3 prints 1.1 nM
Experimental: as §1

B30 was tested, and the Ki was 1.25 nM.
